According to article PMC9988344 (mAbs, 2023):

B1: anti-uPAR recombinant antibody 3159 (mouse/human chimeric IgG1) (antibody, V domains shown)
VH: QVTLKESGPGILQSSLTLSLTCSLSGFSLSTSGMGVSWIRQPSGKGLEWLAHIYWDDDKRYNPSLKTRLTISKDASRDQVFLKIISVDTADTGTYYCGRRVRNYFSGTSYWYFDVWGTGTTVTVSS
VL: DVLMTQTPLSLSVSLGDQASISCRSSQNILHRTGNTYLEWYLQKPGQSPKLLIYKVSNRFSGVPDRFSGSGSGTDFTLKISRLEAEDLGVYYCFQGSYVPFTFGSGTKLEMK
B2: anti-uPAR recombinant antibody 11857 (mouse/human chimeric IgG1) (antibody, V domains shown)
VH: EVQLRQSGPELVKPGASVKISCKASGYTFTDYYMNWVKQSHEKSLEWIGNINPNNGGTDYNQKFKGKATLTVDKSSSTAYMELRSLTSEDSAVYYCARSYGSRFPYWGLGTLVTVSA
VL: DIQMTQTTSSLSASLGDRVTISCRASQDITNYLSWYQQKPDGTVKLLIFYTAVLQSGFPLRFSGSGSGADYSLTISNLEQEDFATYFCQQGHTLPWTFGGGTKLEIK
B3: anti-uPAR recombinant antibody 8163 (mouse/human chimeric IgG1) (antibody, V domains shown)
VH: EVQLVESGGGLVQPGESLTLSCDSNEFDFPSHDMSWVRKTPEKRLELVAAIDSDGGLTYYSNSRERRFIISRDNTKNTLYLQMRSLRSEDTALYYCARRRASYWYFDVWGTGTTVTVSS
VL: DILLTQSPAILPVSPGERVSFSCRASQNIGTSIHWYQQRTNGSPRLLIKYASESISGIPSRFSGSGSGTDFTLSINGVESEDIGDYYCQQSNSWPTFGGGTKLEIK

molecular target: recombinant human soluble uPAR (suPAR) (human, UniProt Q03405, biotin (in the BLI experiments)); assay: ELISA
Sequence (Q03405 23-305): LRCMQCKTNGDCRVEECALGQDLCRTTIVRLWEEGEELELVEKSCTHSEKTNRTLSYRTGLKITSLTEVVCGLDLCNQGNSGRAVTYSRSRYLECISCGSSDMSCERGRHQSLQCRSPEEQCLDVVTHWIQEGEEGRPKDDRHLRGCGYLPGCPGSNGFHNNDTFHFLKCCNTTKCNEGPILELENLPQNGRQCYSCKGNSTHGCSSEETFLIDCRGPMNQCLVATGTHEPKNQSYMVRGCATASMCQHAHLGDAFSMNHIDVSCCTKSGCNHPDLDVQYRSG

Row | Binder | EC50 [nM]
1 | B1 | 0.53
2 | B2 | 0.52
3 | B3 | 0.41

molecular target: cynomolgus monkey uPAR (Macaca fascicularis, UniProt Q9GK78); assay: ELISA
Sequence (Q9GK78 23-305): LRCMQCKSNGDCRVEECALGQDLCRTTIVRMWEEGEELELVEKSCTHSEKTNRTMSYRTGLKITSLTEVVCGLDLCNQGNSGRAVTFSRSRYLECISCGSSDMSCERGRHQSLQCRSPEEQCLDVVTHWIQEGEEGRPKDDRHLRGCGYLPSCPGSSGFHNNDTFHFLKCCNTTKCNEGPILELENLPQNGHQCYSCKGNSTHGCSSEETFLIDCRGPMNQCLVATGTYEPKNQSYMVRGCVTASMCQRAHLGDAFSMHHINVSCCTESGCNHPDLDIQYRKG

Row | Binder | EC50 [nM]
4 | B1 | 0.27
5 | B2 | 0.18
6 | B3 | 0.15

molecular target: T1, human uPAR on the surface of MDA-MB-231 cells (Homo sapiens (endogenous, MDA-MB-231), UniProt Q03405); assay: flow cytometry on cells
T1 sequence (Q03405 23-305): as the sequence (Q03405 23-305) above

Row | Binder | EC50 [nM]
7 | B1 | 0.92
8 | B2 | 2.07
9 | B3 | 0.69

molecular target: T1, human uPAR on the surface of MDA-MB-231 …; assay: cell-based or functional assay

Row | Binder | ADCC against MDA-MB-231 cells with NK-92 MI CD16a effector cells, EC50 [nM] | ADCC against MDA-MB-231 cells with NK-92 MI CD16a effector cells, Max% [%] | ADCC against MDA-MB-231 cells with human PBMCs, EC50 [nM] | ADCC against MDA-MB-231 cells with human PBMCs, Max% [%]
10 | B1 | 0.89 | 28.2 | 0.11 | 47.4
11 | B2 | 5.59 | 27.2 | 0.35 | 52
12 | B3 | 1.14 | 18.8 | 0.09 | 57.5
